{"source": "patent US7820790B2", "about": "“IL-6 binding proteins” (Amgen Mountain View Inc., priority 2005, dated 2010)", "key": {"IL-6R": {"molecular_target": "T1, IL-6R (Homo sapiens, UniProt P08887)", "T1 sequence (P08887 20-468)": "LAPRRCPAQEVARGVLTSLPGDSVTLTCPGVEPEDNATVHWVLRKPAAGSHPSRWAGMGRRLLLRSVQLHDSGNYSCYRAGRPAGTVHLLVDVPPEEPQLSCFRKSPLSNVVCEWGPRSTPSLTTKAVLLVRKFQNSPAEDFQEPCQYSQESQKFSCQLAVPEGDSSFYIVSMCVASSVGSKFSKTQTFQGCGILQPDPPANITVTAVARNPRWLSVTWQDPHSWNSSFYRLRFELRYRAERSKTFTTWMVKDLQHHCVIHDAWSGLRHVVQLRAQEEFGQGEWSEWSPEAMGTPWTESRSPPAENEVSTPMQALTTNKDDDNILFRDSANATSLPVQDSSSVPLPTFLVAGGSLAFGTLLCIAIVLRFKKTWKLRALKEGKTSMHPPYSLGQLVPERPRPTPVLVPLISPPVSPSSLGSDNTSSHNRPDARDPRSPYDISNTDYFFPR", "details": "dose-dependent manner; Nishimoto et al; cited from earlier work"}, "TF-1 cells": {"test_system": "TF-1 cells", "test": "Stimulation of TF-1 cell proliferation by rhIL-6 (control experiments)", "assay_type": "cell-based, human", "protocol": "TF-1, a GM-CSF dependent human erythroleukemia cell line, was purchased from ATCC(CRL-2003). IL-6 is a potent stimulator of TF-1 cell proliferation. The use of TF-1 cells for determining efficacy of IL-6, IL-6R, and/or gp130 inhibitors is well-established in the art.\nTF-1 cells were maintained in growth medium (RPMI 1640 supplemented with 50 uM 2-ME, antibiotic-antimycotic), 10% FBS and 5 ng/ml hGM-CSF (Leukine). Prior to assay, TF-1 cells were washed and cultured overnight in growth medium plus 1% FBS and Leukine. TF-1 cells were then washed three times with growth medium plus 1% FBS, without Leukine prior to the assay.\nTF-1 cells (1×10^4/well) were cultured in the presence or absence of the anti-IL-6 inhibitors-hIL-6 mixture in a 96-well flat bottom plate (Becton Dickinson) in a final volume of 200 ul/well for 40 hr in a humidified incubator at 37° C., 5% CO2. Cells were pulse-labeled with 1 uCi/well of [^3H]-Thymidine (Amersham Biosciences) during the final 16 hr of culture. Plates were harvested with a semiautomatic cell harvester (Tomtec, Inc.) and [^3H]-Thymidine incorporation was measured using a Microbeta-counter (Wallac-Perkin Elmer). Results are expressed as average cpm from triplicate wells.\nControl experiments determined 0.2 ng/mL as the EC50 of rhIL-6 for stimulation of TF-1 cell proliferation."}, "[1]": {"test_system": "Human heparinized-whole blood", "test": "IL-6 stimulation of IgE in human whole blood", "assay_type": "cell-based", "details": "50 ng/ml IL-6, 6.5 hr; compared to unstimulated controls or anti-IL-6 mAb controls", "protocol": "Human heparinized-whole blood was obtained from six normal individuals from Stanford University Blood Bank. The avimer used in these experiments was generated as described in the above examples.\nBriefly, 500 ul of heparinized human blood from several donors was cultured in 12×75 mm tubes or individual wells of a 24 well plate in the presence of 50 ng/ml of human IL-6; exemplary IL-6/IgG binding tetramers, a negative control avimer, 0.01-600 nM; anti-IL-6 monoclonal antibody (Clone 6708-111, R&D Systems) or mouse IgG1 isotype control antibody (eBioscience), 3, 10 or 30 ug/ml, or no inhibitors. Inhibitors or controls were diluted in RPMI1640+10% human AB serum before addition to the cultures. Final volume was 1 ml per sample.\nSamples were incubated for 6.5 hr at 37° C. with 5% CO2. Samples were removed from incubator and centrifuged at 1500 rpm for 10 minutes at room temperature. Plasma samples were divided in two portions and one set was shipped to Rules Based Medicine for determination of the concentrations of IL-6- and avimer-regulated analytes. The second set of plasma samples was stored at −80° C."}}}
{"substance": "MRA: humanized anti-IL-6R antibody (MRA)", "values": [{"measurement": "HDL increase", "setting": "IL-6R", "result": "~26", "unit": "%"}, {"measurement": "LDL increase", "setting": "IL-6R", "result": "12-23%"}]}
{"substance": "rhIL-6: recombinant human IL-6 (R&D Systems)", "values": [{"measurement": "EC50 for stimulation of TF-1 cell proliferation", "setting": "TF-1 cells", "result": 0.2, "unit": "ng/mL"}, {"measurement": "increase of IgE concentration in supernatants", "setting": "[1]", "result": "2-3 fold"}]}
